Data published in US20250283065A1, “TRUNCATED POLYPEPTIDES HAVING PROTEIN LIGASE ACTIVITY AND METHODS OF PRODUCTION THEREOF” (NANYANG TECHNOLOGICAL UNIVERSITY, priority 2022, published 2025).

How the values were obtained:
[1] = tested on: peptides PIE {EDANS} YNAL and GIK {DABSYL} SIP; assay: FRET ligation kinetics assay; type: biochemical
Procedure: Kinetics assay: The kinetic properties of the peptide ligation of the constitutively active PAL were studied using a FRET assay. Two peptides synthesized by GenScript: PIE {EDANS} YNAL (SEQ ID NO:18) and GIK {DABSYL} SIP (SEQ ID NO:19) were mixed at a molar ratio of 1:3. Upon ligation, the peptide PIE {EDANS} YNGIK {DABSYL} SIP (SEQ ID NO: 20) is produced. 50 nM of PAL enzyme is mixed with various concentrations of the peptide mixture. The EDANS fluorescence signal was measured with an excitation wavelength of 336 nm and an emission wavelength of 490 nm. A reduction in EDANS fluorescence signal occurs upon ligation of the two peptides due to quenching by DABSYL. The variation in fluorescence signal for each substrate mixture concentration was measured after addition of the enzyme to initiate the reaction. The rate of decrease in fluorescence signal during the first 30 seconds after enzyme addition was plotted against the substrate concentration to obtain the Vmax, kcat and KM values for each enzyme.
Next, using a FRET ligation assay, the ligase activity of the truncated OaAEP1b-C247A-Δ351 was compared with its acid-activated zymogen counterpart. Briefly, 50 nM of either enzyme was added to a mixture of two peptides A: PIE (EDANS) YNAL (SEQ ID NO:18) and B: GIK (DABSYL) SIP (SEQ ID NO:19). These two peptides were mixed in a A:B molar ratio of 1:3. Upon ligation, the fluorescence signal emission of the EDANS moiety of A (λem=490 nm) becomes quenched by the DABSYL moiety of B. (FIG. 7A). This assay the ligation rate to be followed between both peptides in real-time, giving access to the kinetic parameters of the truncated enzyme.

[2] = tested on: linear NH2-GLPVSTKPVATRNAL-COOH peptide substrate; assay: Peptide cyclization assay (MALDI-TOF MS); type: biochemical; settings: 37° C., after twelve minutes of reaction time
Target sequence (as listed by the source): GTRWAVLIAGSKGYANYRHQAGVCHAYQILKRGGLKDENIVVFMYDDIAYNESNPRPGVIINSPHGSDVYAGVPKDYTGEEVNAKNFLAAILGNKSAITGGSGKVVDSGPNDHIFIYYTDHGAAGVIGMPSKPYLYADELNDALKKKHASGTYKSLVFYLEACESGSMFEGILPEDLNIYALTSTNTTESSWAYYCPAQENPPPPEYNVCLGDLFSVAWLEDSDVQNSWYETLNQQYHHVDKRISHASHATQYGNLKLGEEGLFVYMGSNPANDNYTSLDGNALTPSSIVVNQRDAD
Procedure: Peptide cyclization assay: The peptide used for cyclization assay was purchased commercially from GenScript, NH2-GLPVSTKPVATRNAL-COOH (SEQ ID NO:17). Cyclization assays were performed in 50 μl reaction mixtures containing 20 mM phosphate buffer, pH 6.5, ligases (40 nM) and peptide substrates (20 μM). Reaction was performed at 37° C., for 1 hour. The cyclization product was analyzed by MALDI-TOF MS (ABI 4800 MALDI TOF/TOF).
To evaluate the cyclization activity of the purified OaAEP1b-C247A-Δ351, the enzyme was tested against a linear NH2-GLPVSTKPVATRNAL-COOH (SEQ ID NO:17) peptide substrate (labelled “LS”) (FIG. 6A). The cyclization reaction was performed at 37° C., and samples were collected every two minutes. MALDI-TOF MS was subsequently utilized to detect a cyclized product (labelled “CP”). Successful cyclization carried out by the active ligase of the LS with a mass of 1524 Da would result in CP with a mass of 1321 Da (FIG. 6A). After twelve minutes of reaction time, OaAEP1b-C247A-Δ351 had converted the majority of the linear substrate to the circularized product. No LS peak could be detected compared to a high CP peak detected in the MALDI-TOF mass spectra of the reaction mixture.

[3] = Refolding from E. coli inclusion bodies (urea solubilization, dialysis); type: physicochemical; settings: urea solubilization followed by refolding
Procedure: Refolding and purification of constitutively active OaAEP1b-C247A-4351 using dialysis method: With all steps performed at 4° C., protein purification was achieved by resuspending thawed pellets in 30 mL of lysis buffer (100 mM Bis-Tris, pH 6.5, 500 mM NaCl, 10% (v/v) glycerol), sonicating the pellets followed by clearing the lysates by centrifugation at 58,000 g for 45 min. The insoluble fraction was resolubilized in 10 mL of resolubilizing buffer (50 mM Bis-Tris, pH 6.5, 150 mM NaCl, 1 mM EDTA, 50 mM Glycine, 8 M urea) overnight, with agitation. The concentration of denatured protein was determined using nanodrop and diluted to ˜2 mg mL-1 with buffer 1 (50 mM Bis-Tris, pH 6.5, 150 mM NaCl, 500 mM L-Arginine, 1 M urea, 0.25 mM L-Glutathione oxidized, 2.5 mM L-Glutathione reduced). The diluted denatured protein was dialyzed against buffer 2 (50 mM Bis-Tris, pH 6.5, 150 mM NaCl, 200 mM L-Arginine, 0.125 mM L-Glutathione oxidized, 1.25 mM L-Glutathione reduced) for 8 hr, followed by two buffer exchanges with buffer 3 (20 mM Bis-Tris, pH 6.5, 150 mM NaCl), for a duration of 8 hr for each buffer exchange. The refolded proteins were purified by affinity chromatography (HisTrap column, Cytiva), followed by size exclusion chromatography (HiLoad 16/600 Superdex 200, Cytiva). The proteins eluted as monomers during size exclusion purification. […]

[4] = 50 nM enzyme, peptides A:B molar ratio 1:3

peptides PIE {EDANS} YNAL and GIK {DABSYL} SIP, sequence (as listed by the source): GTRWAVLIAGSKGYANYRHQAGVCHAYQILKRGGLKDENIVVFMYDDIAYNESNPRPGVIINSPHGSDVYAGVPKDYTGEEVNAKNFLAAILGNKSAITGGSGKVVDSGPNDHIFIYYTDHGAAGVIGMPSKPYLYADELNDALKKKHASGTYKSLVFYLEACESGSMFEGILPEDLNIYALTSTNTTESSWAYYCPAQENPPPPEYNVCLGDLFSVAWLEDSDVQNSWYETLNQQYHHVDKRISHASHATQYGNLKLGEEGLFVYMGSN

B1: OaAEP1b-C247A-Δ351: truncated OaAEP1b-C247A construct, residues 352-474 deleted, D351 as C-terminus; constitutively active peptide asparaginyl ligase (protein)
chain: GTRWAVLIAGSKGYANYRHQAGVCHAYQILKRGGLKDENIVVFMYDDIAYNESNPRPGVIINSPHGSDVYAGVPKDYTGEEVNAKNFLAAILGNKSAITGGSGKVVDSGPNDHIFIYYTDHGAAGVIGMPSKPYLYADELNDALKKKHASGTYKSLVFYLEACESGSMFEGILPEDLNIYALTSTNTTESSWCYYCPAQENPPPPEYNVCLGDLFSVAWLEDSDVQNSWYETLNQQYHHVDKRISHASHATQYGNLKLGEEGLFVYMGSNPANDNYTSLDGNALTPSSIVVNQRDAD
- Km [1, 4]: 8.16 µM
- Vmax [1, 4]: 6.40 RFU/see
- ligation activity relative to acid-activated zymogen counterpart (fold less) ([1]; FRET ligation assay): about 2 fold
- cyclization of linear substrate to cyclized product [2]: complete cyclization reaction
- behaviour during refolding procedure [3]: could be refolded
